Measurements as given in article PMC11626777.

B1: HDAC5: OSMI-1 (protein)
parent chain: MNSPNESDGMSGREPSLGILPRTPLHSIPVAVEVKPVLPGAMPSSMGGGGGGSPSPVELRGALAGPMDPALREQQLQQELLVLKQQQQLQKQLLFAEFQKQHDHLTRQHEVQLQKHLKQQQEMLAAKRQQELEQQRQREQQRQEELEKQRLEQQLLILRNKEKSKESAIASTEVKLRLQEFLLSKSKEPTPGGLNHSLPQHPKCWGAHHASLDQSSPPQSGPPGTPPSYKLPLLGPYDSRDDFPLRKTASEPNLKVRSRLKQKVAERRSSPLLRRKDGTVISTFKKRAVEITGTGPGVSSVCNSAPGSGPSSPNSSHSTIAENGFTGSVPNIPTEMIPQHRALPLDSSPNQFSLYTSPSLPNISLGLQATVTVTNSHLTASPKLSTQQEAERQALQSLRQGGTLTGKFMSTSSIPGCLLGVALEGDTSPHGHASLLQHVCSWTGRQQSTLIAVPLHGQSPLVTGERVATSMRTVGKLPRHRPLSRTQSSPLPQSPQALQQLVMQQQHQQFLEKQKQQQMQLGKILTKTGELSRQPTTHPEETEEELTEQQEALLGEGALTIPREGSTESESTQEDLEEEEEEEEEEEEDCIQVKDEDGESGPDEGPDLEESSAGYKKLFADAQQLQPLQVYQAPLSLATVPHQALGRTQSSPAAPGSMKSPTDQPTVVKHLFTTGVVYDTFMLKHQCMCGNTHVHPEHAGRIQSIWSRLQETGLLGKCERIRGRKATLDEIQTVHSEYHTLLYGTSPLNRQKLDSKKLLGPISQKMYAMLPCGGIGVDSDTVWNEMHSSSAVRMAVGCLVELAFKVAAGELKNGFAIIRPPGHHAEESTAMGFCFFNSVAITAKLLQQKLSVGKVLIVDWDIHHGNGTQQAFYNDPSVLYISLHRYDNGNFFPGSGAPEEVGGGPGVGYNVNVAWTGGVDPPIGDVEYLTAFRTVVMPIAQEFSPDVVLVSAGFDAVEGHLSPLGGYSVTARCFGHLTRQLMTLAGGRVVLALEGGHDLTAICDASEACVSALLSVELQPLDEAVLQQKPSVNAVATLEKVIEIQSKHWSCVQRFAAGLGCSLREAQTGEKEEAETVSAMALLSVGAEQAQAVATQEHSPRPAEEPMEQEPAL
B2: HDAC5: Ogtfl/fl; Bglap-Cre (Ogt cKO) (protein)
parent chain: B1 parent chain

How the values were obtained:
[1] = western blot of HDAC5 protein, mBMSCs; settings: glycan lost; control: DMSO
[2] = HDAC5 protein level in bone tissue; settings: glycan lost; control: Ogtfl/fl mice

Protein	expression_or_secretion [1]	expression_or_secretion [2]
B1	increases	
B2		increases
